The results in this text go back to IntAct's records for PubMed 18716626.

B1: Shugoshin-1 (Schizosaccharomyces pombe (strain ATCC 38366 / 972)), Q9P7A0 (parent)
chain: MNFQFINSNINNEDKLPMESLKKKFLKQNREIIKINTQLSIKIRESENEIQDLIQENFTLKSYLVKLEARFRNQSQTEDLLKNFFPEIQTIHKKISQVQSLLKIIEKKCSSDFLEANVKSQFTTCENKDSKEDYQILHNKRLEYVSFNDELKSLETGQPLYCFQDFQKKVHGPPALSEKPGKCILKDKTNAHVNKIPQDEVNYSLPQKNITIFSKELKENEFESINEGETEEEKAKTSNVCVCIPCKSAEQITDLKGQATGDSSPCDFEESQPRINGREKLRRSVKVINYAIPSLRTKLRRDFDLPSDRKRKRHPRGKA
partner: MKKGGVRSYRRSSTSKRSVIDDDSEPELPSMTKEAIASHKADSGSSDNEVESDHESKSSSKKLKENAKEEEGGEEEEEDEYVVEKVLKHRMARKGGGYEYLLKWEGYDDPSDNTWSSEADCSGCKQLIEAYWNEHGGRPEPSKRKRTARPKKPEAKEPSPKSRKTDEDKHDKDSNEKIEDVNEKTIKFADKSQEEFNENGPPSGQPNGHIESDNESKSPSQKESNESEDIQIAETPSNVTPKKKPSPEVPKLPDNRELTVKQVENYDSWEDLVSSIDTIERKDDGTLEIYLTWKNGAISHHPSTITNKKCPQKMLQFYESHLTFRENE
B2: Chromatin-associated protein swi6 (Schizosaccharomyces pombe (strain ATCC 38366 / 972)), P40381 (parent)
chain: B1 partner
partner: B1 chain

The variants in one test derive from B1. To be noted: with swi6_schpo swi6, P40381.
MNFQFINSNINNEDKLPMESLKKKFLKQNREIIKINTQLSIKIRESENEIQDLIQENFTLKSYLVKLEARFRNQSQTEDLLKNFFPEIQTIHKKISQVQSLLKIIEKKCSSDFLEANVKSQFTTCENKDSKEDYQILHNKRLEYVSFNDELKSLETGQPLYCFQDFQKKVHGPPALSEKPGKCILKDKTNAHVNKIPQDEVNYSLPQKNITIFSKELKENEFESINEGETEEEKAKTSNVCECIPCKSAEQITDLKGQATGDSSPCDFEESQPRINGREKLRRSVKVINYAIPSLRTKLRRDFDLPSDRKRKRHPRGKA [V242E]: the “effect of a mutation on the interaction” value is “disrupting interaction strength”.

Another test covers variants of B2. Conditions: with sgo1_schpo sgo1, Q9P7A0.
With MKKGGVRSYRRSSTSKRSVIDDDSEPELPSMTKEAIASHKADSGSSDNEVESDHESKSSSKKLKENAKEEEGGEEEEEDEYVVEKVLKHRMARKGGGYEYLLKWEGYDDPSDNTWSSEADCSGCKQLIEAYWNEHGGRPEPSKRKRTARPKKPEAKEPSPKSRKTDEDKHDKDSNEKIEDVNEKTIKFADKSQEEFNENGPPSGQPNGHIESDNESKSPSQKESNESEDIQIAETPSNVTPKKKPSPEVPKLPDNRELTVKQVENYDSWEDLVSSIDTIERKDDGTLEIYLTWKNGAISHHPSTITNKKCPQKMLQFYESHLTARENE [F324A], the “effect of a mutation on the interaction” value is reported as “disrupting interaction strength”.
